Data reported in the DeepSol protein solubility set.

Test: soluble on expression in E. coli; label from the status in PepcDB or PDB records

Sequence | soluble on expression in E. coli
MYRVFVFDLDGTLLNDNLEISEKDRRNIEKLSRKCYVVFASGRMLVSTLNVEKKYFKRTFPTIAYNGAIVYLPEEGVILNEKIPPEVAKDIIEYIKPLNVHWQAYIDDVLYSEKDNEEIKSYARHSNVDYRVEPNLSELVSKMGTTKLLLIDTPERLDELKEILSERFKDVVKVFKSFPTYLEIVPKNVDKGKALRFLRERMNWKKEEIVVFGDNENDLFMFEEAGLRVAMENAIEKVKEASDIVTLTNNDSGVSYVLERISTDCLDE | soluble
MYRVLLSGAAGSGKGTIARMLVREFEPLGFNYFAAGDFIRDHIARGTEFGVRAQSFLNKGEHVPDSILNGAILAEMLKAGPRVVLDGYPRNMSQLKMVEEQAPLNLIVELKVPRKVLIDRLSKQLVHPASGRAYNLEVNPPKEEGKDDITGEPLFKRSTDQLEVARRRLEVYDKTENKVLDYYKKQNKCITMSGESSKAVFESVAEVMRRDLLTTTPRTAYA | not soluble
MYSISFQEDSLLPRERLAKEGVEALSNQELLAILLRTGTRQASVFEIAQKVLNNLSSLTDLKKMTLQELQSLSGIGRVKAIELQAMIELGHRIHKHETLEMESILSSQKLAKKMQQELGDKKQEHLVALYLNTQNQIIHQQTIFIGSVTRSIAEPREILHYAIKHMATSLILVHNHPSGAVAPSQNDDHVTKLVKEACELMGIVLLDHLIVSHSNYFSYREKTDLI | not soluble
MYVALWYKHGKPIHGRSWNNGGVVECSFPYKEAELTTKQQLEGQIQVLQYVGDHNNQGFWYEWIKYKDRIEKIDDKHQLVRCGDSFPIFWKRKEGNLLGYVDNKTEEGWFSFNGKVIKQVGPQLNDMYIITRNCVGGPPYCECENCPKLPPPPPIPPPGPPPPRVMHDEWIDIREGDPWPTRKLVKALDKSLDTLPGVSADQYVALWYMQGEPVMGRVWNEGGKVAANFSWFNNEYCKNVGSIQLLVRLGPHVVGYEYGWIPFPEAANFDAGKIWKPVHVNNHKGDISVGVVNLPGGKQILAKVDVRNESYGYGYQGKEHSARGPACASSVTVLCRKALPGYQLDG | not soluble
MYVQGKIGLDQLAEAERLHATLCREVQQRLDIRLRAHRAVLDELNERLADKLFCNFSVFQSIPDAWAIDQIFPVMPLQRLGEEPTRRAVIQDMTCDSDGRINAYIDRQSIENTLRMHAPAPGEPYLIGFFLVGAYQEILGDMHNLFGDTHSVDVELDGAGGYTFTHTRRGDGADDLLRYVHIDPDELERLEHHHHHH | not soluble
MYYQQALMRSTVKSSVSLGGIVKYSEQFSSNDAIMSGCLPSNPWITDDTQFWDLNAKLVEIPTKMRVERWAFNFSELIRDPKGRQSFQYFLKKEFSGENLGFWEACEDLKYGDQSKVKEKAEEIYKLFLAPGARRWINIDGKTMDITVKGLKHPHRYVLDAAQTHIYMLMKKDSYARYLKSPIYKDMQAKAIDPQETTKKSSTLPFMRRHLRSSPSPVILRQLEEEAKAREAANTVDITQPGQHMAPSPHLTVYTGTCMPPSPSSPFSSSCRSPRKPFASPSRFIRRPTICPSPILVVLDSSSGLEQKGECSWSGANPGPSVTDSSEASRDTSWTRSRPRAPLKARMALSFSRFLRRGCLASPVFARVSPKCPAVSHGRVQPLGDVGQQLPRLKSKRVANFFQIKMDVPTGSGTCLMDSEDAGTGESGDRATEKEVICPWESL | not soluble
NAKKPTMQLSDSGVDILIGSASYEGGELVLPTSITNQSSQSVIQVEVEVQVFDMSGKQLAKEKVTVWQSIKRMADTYLRPQQAEQGKSIKLAVPQSQQYQFSAKVLEVKTR | not soluble
NANDNVVIVGTGLAGVEVAFGLRASGWEGNIRLVGDATVIPHHLPPLSKAYLAGKATAESLYLRTPDAYAAQNIQLLGGTQVTAINRDRQQVILSDGRALDYDRLVLATGGRPRPLPVASGAVGKANNFRYLRTLEDAECIRRQLIADNRLVVIGGGYIGLEVAATAIKANMHVTLLDTAARVLERVTAPPVSAFYEHLHREAGVDIRTGTQVCGFEMSTDQQKVTAVLCEDGTRLPADLVIAGIGLIPNCELASAAGLQVDNGIVINEHMQTSDPLIMAVGDCARFHSQLYDRWVRIESVPNALEQARKIAAILCGKVPRDEAAPWFWSDQYEIGLKMVGLSEGYDRIIVRGSLAQPDFSVFYLQGDRVLAVDTVNRPVEFNQSKQIITDRLPVEPNLLGDESVPLKEIIAAAKAELSSAKAELSSAPRHHHHHH | soluble
NARTVVMVQFRDIEQETSMRRDLTRTEADLTRTEARLAAFLRNMAEGILVLDDDSRITYASEAASELLKVPVASLVGERFTEFCRAGQSRESVRRALELTTADGGSQSLRYEVELTPGERRWHAGSCQHIGIE | not soluble
NCRLFIGGIPKMKKREEILEEIAKVTEGVLDVIVYASAADKMKNRGFAFVEYESHRAAAMARRKLMPGRIQLWGHQIAVDWAEPEIDVDEDVMETV | soluble
NDPDADRFAVAARKADGEYQMLTGDQVGSLFGHYLLSQTDAHRQLVGNTIVSSSLLSKIAAAHGARYYQTLTGFKWLTNVAMQEQTEQHQFLFAYEEALGYTIGSTVWDKDGLSALVAFAQLAAELNAQGKTVWDQLEALYRQHGLHVN | not soluble
NENFRWKTAVNMSMNRNKVVSLHKDYKSFRYGSEGFSMAYDMWVKEGGKLGDIYGNGFERDENGKIKLNETGNPIKVTGNNTLLGNANPDALLGWSNTFTYKGFTLYFLIDARIGGDVMSLTQAHLDAMGVSKESGESRDRGYVEYEGIQFKDVPNFYGTVGGRNGISEYYMYDATNVRLRELTLGYSFPETLLAKTKFIKGLDLTLVARNLFFLYKDAPFDPDATLSVGNTLQGVDVFGMPTTRNIGFNVKFTF | not soluble
NHPTRPCTCAPGQVEKYLSRISGPLLDRIDIQVEITPVPFEKISDSRPAESSEKIRQRVVAAREIQSKRFADYSGVHCNAQMDDKLMNRYALPDEKGLQRLRTAMERFDLSARAYGRILKVARTIADLAGSEDVGGEHIAEAIGYRNLDRENWGKA | not soluble
NILKALLPTSTAGSLPKPAWLAEPETLWSPWKLQGEELTEGKHDALRLSLQDQQQAGIDIVSDGEQTRQHFVTTFIEHLNGVDFEKRKTVKIRDRYDASVPTVVGPVSRQKSVFVEDAKFLRQQTKQPIKWALPGPMTMIDTLYDDHYKSREKLAWEFAKILNQEAKELEAAGVDIIQFDEPAFNVFFDEVNDWGIACLERAIEGLNCETAVHICYGYGIKANTDWKKTLGSEWRQYEEAFPKLQKSNIDIISLECHNSHVPMELLELIRGKKVMVGAIDVASNTIETPEEVANTLRKALKFVDADKLYPCTNCGMAPLSHQVARGKLNALSAGAEIVRRELST | not soluble
NILTDGAIKKLTLNKLFERYMSTRELKESTRANYLKTWENRVKDEIGNIKVIQILPSHIKSFYSKLSKAGYAYSTIKFINNMIYPALEMAVDDDIIRKNPAKFSISDYGRQAEERIALTVLQQEKMLEFVKNNQVYNTYYPMLRIMLGTGVRCGELIGLTWEDVDVRTKAVSIDHQLIYKDLGDGYKFHISTPKTDSGIRTIPMTSDVQRAFEEQKKLNFMLQKGKDVEIDGYKGFIFMAKSGRPLMPSAINNILYNIVDAYNKKEVQIAKTEHRNAELLPTVSAHIMRHTACTRMAEKRMDVKVLQYIMGHAHIDVTMDVYNHVSEMSRIESEITRLESVAIS | not soluble
NLPDVQASKPSIAINLTRVGVTNMKKLVEIKRKDKRPIVLISTFDVFVDLPSDRKGANLSRNFEAVDEVLEKVLSTPVYEIEQLCSDIAHNLLGRHEYANQAEVRMKSEYMIRRASPSTGIKCQEVVNIFAEASAVRGNGDRDYFDVKKLIGAEVVGMTACPCAQEIMRDKAATELANLGVERDKIIKFLEKVPMATHNQRGRGIISIKVAHDFDVSLESIIKIIERSMSSSVYEVLKRSDEKVVVETAHMNPKFVEDCVRAMADNVVKEFPNLPDNAVITIKQTNEESI | not soluble
NLSVYNVQATNIPPKETLVYTKQTQTT | soluble
NNNRAPKEPTDPVTLIFTDIESSTALWAAHPDLMPDAVAAHHRMVRSLIGRYKCYEVKTVGDSFMIASKSPFAAVQLAQELQLCFLHHDWGTNALDDSYREFEEQRAEGECEYTPPTAHMDPEVYSRLWNGLRVRVGIHTGLCDIRHDEVTKGYDYYGRTPNMAARTESVANGGQVLMTHAAYMSLSAEDRKQIDVTALGDVALRGVSDPVKMYQLNTVPSRNFAALRLDREYFD | soluble
